# Experimental data published in PMC6423188, “HYNIC and DOMA conjugated radiolabeled bombesin analogs as receptor-targeted probes for scintigraphic detection of breast tumor” (EJNMMI Research, 2019).
# Columns and labels:
# physchem = format: physicochemical; settings: pH 7.4
# Method: Lipophilicity of the HPLC-purified radiopeptide analogs was determined through octanol/water partition coefficients, determined at pH 7.4 by measuring the distribution of the HPLC purified radiolabeled peptides in 1-octanol and PBS. Then, 50 μL HPLC purified ^99mTc-BN1/^99mTc-BN2/^99mTc-BN3/^99mTc-BN4/^99mTc-BNS with 100 μCi of radiolabeled compound in PBS was added to a to a centrifuge tube containing 1 mL n-octanol and 1 mL PBS (0.025 M, pH 7.4). The tube was vortexed at room temperature for 2 min and they are centrifuged at 5000 rpm for 5 min to ensure complete separation of layers. Further, 100 μL of each phase was transferred into a separate pre-weighed vial and measured in the well γ-counter. The ratio of octanol layer counts to aqueous layer counts was expressed as the distribution coefficient (D, the appropriate descriptor for ionizable compounds) and logD was used for determination of lipophilicity. Counts per unit weight of the sample were calculated, and logD value as calculated as follows:
# log10D = log10 [(cpm in octanol – cpm in background) / (cpm in buffer – cpm in background)]
# [1] = system: MDA-MB-231 tumor-bearing mice; assay: In vivo biodistribution; design: species or system mouse; settings: for Tumor uptake: MDA-MB-231 tumor; for Tumor uptake / Blood uptake / Heart uptake / Intestine uptake / Kidney uptake / Liver uptake / Lung uptake / Muscle uptake / Pancreas uptake / Spleen uptake / Stomach uptake / Urine + urinary bladder uptake: mean ± SD, n = 3
# Method: All animal experiments were done according to the CSIR-IICB Animal Ethics Committee’s rules and regulation. Forty-eight hours before tumor cell implantation, an immunosuppressive drug (cyclosporine-A) was given intraperitoneal (i.p) at a concentration of 30 mg/kg/day. After that, MDA-MB-231 cells (5 × 10^6) 0.2 mL were implanted subcutaneously into the left flanks of the hind leg of BALB/c mice. Thereafter, the same dose of cyclosporine was given i.p. daily up to 2 weeks. Two weeks after inoculation of the tumor cells, when tumors reached ~ 0.5 cm in mean diameter, the tumor-bearing mice were used for biodistribution and imaging studies. Animals were monitored daily and their weights were recorded. Control group of mice received only 0.9 wt% saline. After cell implantation, the growth rate of the breast tumor followed a satisfactory pattern of spheroid shape and tumors are palpable within 2 to 4 weeks. MDA-MB-231 cell implanted mice tumor models were used for biodistribution and planar imaging studies of these radiolabeled new bombesin analogs.
# In tissue biodistribution studies, tumor-bearing animals were divided into four groups and well hydrated for 1 h by intraperitoneal administration of saline (0.9%, 2 mL). Three animals per groups were used for biodistribution studies. After that, the radiolabeled new bombesin analogs (^99mTc-BN) were injected intravenously in each animal of each group consequently through the tail vein [24–27]. After 5, 30, 60, and 120 min intravenous administrations of radiolabeled analogs, the animals were sacrificed; blood, heart, lung, liver, kidney, stomach, intestine, spleen, pancreas, brain, muscle, and tumor were excised, weighed, and counted for radioactivity. The organ uptake was calculated as a percentage of the injected activity per gram of wet tissue (%IA/g). In order to evaluate whether binding of bombesin analogs to MDA-MB-231 cells in vivo is specific; blocking studies with ^99mTc-labeled bombesin analogs in tumor-bearing mice were carried out. Groups of three animals were injected 0.03 nmol of ^99mTc-labeled BN analogs (2 MBq) with 25 nmol of non-radiolabeled BN peptide. After 60 min and 120 min, mice were sacrificed and the organs were collected. Each organ was weighed and counted in a gamma counter along with activity standard and percentage of injected activity per gram (%IA/g) of tissue was calculated for each type of tissues. Counts were corrected for background radiation and physical decay of the radioactivity. The uptake was expressed in the percentage of injected activity per gram of each organ (%IA/g). Data were analyzed statistically by the t test, with the level of significance set at P < 0.05.
# in vitro = in vitro ADME; settings: rat
# Method: An aliquot (100 μL) of ^99mTc-BN1/^99mTc-BN2/^99mTc-BN3/^99mTc-BN4/^99mTc-BNS was added to 1 mL of freshly collected rat serum in centrifuge tube. The mixture was then incubated at 37 °C for 1 h; the serum protein was precipitated by adding 1 mL trichloroacetic acid (10%, V/V). The supernatant and precipitate were separated by centrifugation at 3000 rpm for 5 min. Radioactivities of both the phases were measured separately. The above experimental procedure was repeated three times. The percentage of protein binding was determined as: Plasma protein binding % = (precipitate counts (CPM) / [precipitate counts (CPM) + plasma counts (CPM)]) × 100%.
# [2] = 60 min p.i., blocked with excess non-radiolabeled BN peptide
substance,measurement,setting,value
^99mTc-HYNIC-Asp-Asn-[Lys^11CHAla^13Nle^14]-BN(7-14)NH2 [99mTc-BN3],logD,physchem,− 2.21 ± 0.13
same,tumor/blood ratio,[1]; 5 min p.i.,2.37
same,tumor/kidney ratio,[1]; 5 min p.i.,0.64
same,tumor/muscle ratio,[1]; 5 min p.i.,2.56
same,Tumor uptake,"[1]; 5 min p.i., i.v.",1.28 ± 0.01 %IA/g
same,Blood uptake,"[1]; 5 min p.i., i.v.",0.54 ± 0.01 %IA/g
same,Heart uptake,"[1]; 5 min p.i., i.v.",0.91 ± 0.03 %IA/g
same,Intestine uptake,"[1]; 5 min p.i., i.v.",1.21 ± 0.06 %IA/g
same,Kidney uptake,"[1]; 5 min p.i., i.v.",1.97 ± 0.11 %IA/g
same,Liver uptake,"[1]; 5 min p.i., i.v.",0.44 ± 0.03 %IA/g
same,Lung uptake,"[1]; 5 min p.i., i.v.",0.87 ± 0.14 %IA/g
same,Muscle uptake,"[1]; 5 min p.i., i.v.",0.50 ± 0.01 %IA/g
same,Pancreas uptake,"[1]; 5 min p.i., i.v.",2.78 ± 0.11 %IA/g
same,Spleen uptake,"[1]; 5 min p.i., i.v.",0.54 ± 0.04 %IA/g
same,Stomach uptake,"[1]; 5 min p.i., i.v.",0.52 ± 0.02 %IA/g
same,Urine + urinary bladder uptake,"[1]; 5 min p.i., i.v.",0.61 ± 0.04 %IA/g
same,tumor/blood ratio,[1]; 30 min p.i.,3.47
same,tumor/kidney ratio,[1]; 30 min p.i.,0.76
same,tumor/muscle ratio,[1]; 30 min p.i.,9.83
same,Tumor uptake,"[1]; 30 min p.i., i.v.",2.95 ± 0.01 %IA/g
same,Blood uptake,"[1]; 30 min p.i., i.v.",0.85 ± 0.01 %IA/g
same,Heart uptake,"[1]; 30 min p.i., i.v.",0.77 ± 0.02 %IA/g
same,Intestine uptake,"[1]; 30 min p.i., i.v.",1.46 ± 0.05 %IA/g
same,Kidney uptake,"[1]; 30 min p.i., i.v.",3.88 ± 0.21 %IA/g
same,Liver uptake,"[1]; 30 min p.i., i.v.",0.23 ± 0.13 %IA/g
same,Lung uptake,"[1]; 30 min p.i., i.v.",0.62 ± 0.03 %IA/g
same,Muscle uptake,"[1]; 30 min p.i., i.v.",0.30 ± 0.02 %IA/g
same,Pancreas uptake,"[1]; 30 min p.i., i.v.",3.59 ± 0.03 %IA/g
same,Spleen uptake,"[1]; 30 min p.i., i.v.",0.46 ± 0.01 %IA/g
same,Stomach uptake,"[1]; 30 min p.i., i.v.",0.74 ± 0.04 %IA/g
same,Urine + urinary bladder uptake,"[1]; 30 min p.i., i.v.",2.80 ± 0.01 %IA/g
same,tumor/blood ratio,[1]; 60 min p.i.,5.71
same,tumor/kidney ratio,[1]; 60 min p.i.,0.85
same,tumor/muscle ratio,[1]; 60 min p.i.,10.38
same,Tumor uptake,[1]; [2],0.54 ± 0.20 %IA/g
same,Blood uptake,[1]; [2],0.30 ± 0.01 %IA/g
same,Heart uptake,[1]; [2],0.29 ± 0.11 %IA/g
same,Intestine uptake,[1]; [2],1.36 ± 0.23 %IA/g
same,Kidney uptake,[1]; [2],3.18 ± 0.20 %IA/g
same,Liver uptake,[1]; [2],0.20 ± 0.03 %IA/g
same,Lung uptake,[1]; [2],0.52 ± 0.02 %IA/g
same,Muscle uptake,[1]; [2],0.16 ± 0.21 %IA/g
same,Pancreas uptake,[1]; [2],0.92 ± 0.02 %IA/g
same,Spleen uptake,[1]; [2],0.33 ± 0.03 %IA/g
same,Stomach uptake,[1]; [2],0.37 ± 0.10 %IA/g
same,Urine + urinary bladder uptake,[1]; [2],3.52 ± 0.07 %IA/g
same,Tumor uptake,"[1]; 60 min p.i., i.v.",2.70 ± 0.02 %IA/g
same,Blood uptake,"[1]; 60 min p.i., i.v.",0.47 ± 0.04 %IA/g
same,Heart uptake,"[1]; 60 min p.i., i.v.",0.35 ± 0.02 %IA/g
same,Intestine uptake,"[1]; 60 min p.i., i.v.",1.85 ± 0.21 %IA/g
same,Kidney uptake,"[1]; 60 min p.i., i.v.",3.17 ± 0.17 %IA/g
same,Liver uptake,"[1]; 60 min p.i., i.v.",0.18 ± 0.12 %IA/g
same,Lung uptake,"[1]; 60 min p.i., i.v.",0.50 ± 0.02 %IA/g
same,Muscle uptake,"[1]; 60 min p.i., i.v.",0.26 ± 0.03 %IA/g
same,Pancreas uptake,"[1]; 60 min p.i., i.v.",2.11 ± 0.06 %IA/g
same,Spleen uptake,"[1]; 60 min p.i., i.v.",0.30 ± 0.01 %IA/g
same,Stomach uptake,"[1]; 60 min p.i., i.v.",0.66 ± 0.02 %IA/g
same,Urine + urinary bladder uptake,"[1]; 60 min p.i., i.v.",3.75 ± 0.11 %IA/g
same,tumor/blood ratio,[1]; 120 min p.i.,7.04
same,tumor/kidney ratio,[1]; 120 min p.i.,1.20
same,tumor/muscle ratio,[1]; 120 min p.i.,8.89
same,Tumor uptake,"[1]; 120 min p.i., i.v.",1.69 ± 0.03 %IA/g
same,Blood uptake,"[1]; 120 min p.i., i.v.",0.24 ± 0.01 %IA/g
same,Heart uptake,"[1]; 120 min p.i., i.v.",0.15 ± 0.04 %IA/g
same,Intestine uptake,"[1]; 120 min p.i., i.v.",0.70 ± 0.05 %IA/g
same,Kidney uptake,"[1]; 120 min p.i., i.v.",1.40 ± 0.13 %IA/g
same,Liver uptake,"[1]; 120 min p.i., i.v.",0.11 ± 0.03 %IA/g
same,Lung uptake,"[1]; 120 min p.i., i.v.",0.35 ± 0.11 %IA/g
same,Muscle uptake,"[1]; 120 min p.i., i.v.",0.19 ± 0.02 %IA/g
same,Pancreas uptake,"[1]; 120 min p.i., i.v.",1.22 ± 0.04 %IA/g
same,Spleen uptake,"[1]; 120 min p.i., i.v.",0.12 ± 0.02 %IA/g
same,Stomach uptake,"[1]; 120 min p.i., i.v.",0.25 ± 0.01 %IA/g
same,Urine + urinary bladder uptake,"[1]; 120 min p.i., i.v.",3.91 ± 0.22 %IA/g
same,Percentage of plasma protein binding,in vitro,26.00%
